Legend:
[1] = biological target: T1, Zymomonas mobilis fructokinase EC 2.7.1.4 (Zymomonas mobilis subsp. mobilis, UniProt Q03417); assay: Kinetic properties, sugar specificity and glucose inhibition of purified fructokinase; type: biochemical
T1 construct: endogenous in cells; host or cells: Zymomonas mobilis cells (enzyme extracted and purified from the organism itself)
T1 sequence (Q03417 1-301): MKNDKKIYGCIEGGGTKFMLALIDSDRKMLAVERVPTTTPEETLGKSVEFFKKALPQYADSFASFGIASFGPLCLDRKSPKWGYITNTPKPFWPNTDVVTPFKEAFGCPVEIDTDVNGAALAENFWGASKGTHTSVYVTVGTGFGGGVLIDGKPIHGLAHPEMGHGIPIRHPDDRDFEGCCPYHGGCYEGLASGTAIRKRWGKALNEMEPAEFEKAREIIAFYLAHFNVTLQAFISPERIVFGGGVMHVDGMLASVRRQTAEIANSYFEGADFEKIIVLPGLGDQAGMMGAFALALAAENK
Text: The active enzyme may be concentrated by ultrafiltration and stored frozen or freeze-dried.

[2] = biological target: T2, Zymomonas mobilis glucose 6-phosphate dehydrogenase EC 1.1.1.49 (Zymomonas mobilis subsp. mobilis, UniProt P21907); type: biochemical; settings: assay conditions: 25° C., 50 mM Tris-Cl buffer, pH 8.0
T2 construct: endogenous in cells; host or cells: Zymomonas mobilis cells (enzyme extracted and purified from the organism itself)
T2 sequence (P21907 1-485): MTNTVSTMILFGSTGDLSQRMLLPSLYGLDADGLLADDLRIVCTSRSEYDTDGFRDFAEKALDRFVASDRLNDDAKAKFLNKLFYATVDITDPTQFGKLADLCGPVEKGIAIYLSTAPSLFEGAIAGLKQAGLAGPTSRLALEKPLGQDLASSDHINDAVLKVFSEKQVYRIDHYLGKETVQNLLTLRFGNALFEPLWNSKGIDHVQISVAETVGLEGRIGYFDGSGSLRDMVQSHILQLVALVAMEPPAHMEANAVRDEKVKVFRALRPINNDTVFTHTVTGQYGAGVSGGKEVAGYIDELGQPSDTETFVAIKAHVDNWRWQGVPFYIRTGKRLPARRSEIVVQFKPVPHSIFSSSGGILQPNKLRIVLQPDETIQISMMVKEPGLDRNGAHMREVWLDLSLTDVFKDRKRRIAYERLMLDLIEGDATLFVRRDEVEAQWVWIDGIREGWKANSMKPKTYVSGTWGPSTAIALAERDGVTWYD

[3] = substrate: NC(=O)c1ccc[n+]([C@@H]2O[C@H](COP(=O)([O-])OP(=O)(O)OC[C@H]3O[C@@H](n4cnc5c(N)ncnc54)[C@H](O)[C@@H]3O)[C@@H](O)[C@H]2O)c1; assay: purified protein, by the assay type; type: biochemical, Zymomonas mobilis; settings: other: assay conditions printed: 25° C., 50 mM Tris-Cl buffer, pH 8.0
[4] = substrate: NC(=O)c1ccc[n+]([C@@H]2O[C@H](COP(=O)([O-])OP(=O)(O)OC[C@H]3O[C@@H](n4cnc5c(N)ncnc54)[C@H](OP(=O)(O)O)[C@@H]3O)[C@@H](O)[C@H]2O)c1; assay: purified protein, by the assay type; settings: other: assay conditions printed: 25° C., 50 mM Tris-Cl buffer, pH 8.0, pH 8.0
[5] = substrate: Nc1ncnc2c1ncn2[C@@H]1O[C@H](COP(=O)(O)OP(=O)(O)OP(=O)(O)O)[C@@H](O)[C@H]1O; assay: purified protein, by the assay type; type: biochemical, Zymomonas mobilis; settings: other: assay conditions printed: 50 mM K-morpholino propane sulphonate buffer, 30 mM NaCl, 2 mM MgCl2 pH 6.8
[6] = substrate: O=C(CO)[C@@H](O)[C@H](O)[C@H](O)CO; assay: purified protein, by the assay type; type: biochemical, Zymomonas mobilis; settings: other: assay conditions printed: 50 mM K-morpholino propane sulphonate buffer, 30 mM NaCl, 2 mM MgCl2 pH 6.8
[7] = substrate: Nc1ncnc2c1ncn2[C@@H]1O[C@H](COP(=O)(O)OP(=O)(O)OP(=O)(O)O)[C@@H](O)[C@H]1O; assay: Kinetic properties and sugar specificity of purified glucokinase; type: biochemical, Zymomonas mobilis; settings: other: approximate values, assay conditions: 25° C., 50 mM K-Morpholinopropane sulphonate, 30 mM NaCl, 2 mM MgCl2, pH 6.8
[8] = substrate: OC[C@H]1OC(O)[C@H](O)[C@@H](O)[C@@H]1O; assay: purified protein, by the assay type; settings: other: approximate values, assay conditions: 25° C., 50 mM K-Morpholinopropane sulphonate, 30 mM NaCl, 2 mM MgCl2, pH 6.8, pH 6.8

OC[C@H]1OC(O)[C@H](O)[C@@H](O)[C@@H]1O (stereo partly drawn) [glucose]
Ki ([1]; competitive inhibitor with fructose): 200 µM
enzyme activity in the presence of glucose ([1]; glucose at 5-10 mM or more, low levels of fructose): essentially inactive

glucose 6-phosphate [glucose 6-phosphate dehydrogenase]
Km [2]: 170 µM

B1: Zymomonas mobilis glucose 6-phosphate dehydrogenase EC 1.1.1.49 (Zymomonas mobilis subsp. mobilis ZM4 = ATCC 31821) (protein)
chain: MTNTVSTMILFGSTGDLSQRMLLPSLYGLDADGLLADDLRIVCTSRSEYDTDGFRDFAEKALDRFVASDRLNDDAKAKFLNKLFYATVDITDPTQFGKLADLCGPVEKGIAIYLSTAPSLFEGAIAGLKQAGLAGPTSRLALEKPLGQDLASSDHINDAVLKVFSEKQVYRIDHYLGKETVQNLLTLRFGNALFEPLWNSKGIDHVQISVAETVGLEGRIGYFDGSGSLRDMVQSHILQLVALVAMEPPAHMEANAVRDEKVKVFRALRPINNDTVFTHTVTGQYGAGVSGGKEVAGYIDELGQPSDTETFVAIKAHVDNWRWQGVPFYIRTGKRLPARRSEIVVQFKPVPHSIFSSSGGILQPNKLRIVLQPDETIQISMMVKEPGLDRNGAHMREVWLDLSLTDVFKDRKRRIAYERLMLDLIEGDATLFVRRDEVEAQWVWIDGIREGWKANSMKPKTYVSGTWGPSTAIALAERDGVTWYD
notes: endogenous in cells; host or cells: Zymomonas mobilis cells (enzyme extracted and purified from the organism itself)
Km [3]: 210 µM
Km [4]: 40 µM

B2: Zymomonas mobilis fructokinase EC 2.7.1.4 (Zymomonas mobilis subsp. mobilis ZM4 = ATCC 31821) (protein)
chain: MKNDKKIYGCIEGGGTKFMLALIDSDRKMLAVERVPTTTPEETLGKSVEFFKKALPQYADSFASFGIASFGPLCLDRKSPKWGYITNTPKPFWPNTDVVTPFKEAFGCPVEIDTDVNGAALAENFWGASKGTHTSVYVTVGTGFGGGVLIDGKPIHGLAHPEMGHGIPIRHPDDRDFEGCCPYHGGCYEGLASGTAIRKRWGKALNEMEPAEFEKAREIIAFYLAHFNVTLQAFISPERIVFGGGVMHVDGMLASVRRQTAEIANSYFEGADFEKIIVLPGLGDQAGMMGAFALALAAENK
notes: as for B1
Km [5]: 400 µM
Km [6]: 500 µM

B3: Zymomonas mobilis glucokinase EC 2.7.1.2 (Zymomonas mobilis subsp. mobilis ZM4 = ATCC 31821) (protein)
chain: MEIVAIDIGGTHARFSIAEVSNGRVLSLGEETTFKTAEHASLQLAWERFGEKLGRPLPRAAAIAWAGPVHGEVLKLTNNPWVLRPATLNEKLDIDTHVLINDFGAVAHAVAHMDSSYLDHICGPDEALPSDGVITILGPGTGLGVAHLLRTEGRYFVIETEGGHIDFAPLDRLEDKILARLRERFRRVSIERIISGPGLGNIYEALAAIEGVPFSLLDDIKLWQMALEGKDNLAEAALDRFCLSLGAIAGDLALAQGATSVVIGGGVGLRIASHLPESGFRQRFVSKGRFERVMSKIPVKLITYPQPGLLGAAAAYANKYSEVE
notes: Glucokinase so obtained is almost homogenous by electrophoretic criteria; endogenous in cells; host or cells: Zymomonas mobilis cells (enzyme extracted and purified from the organism itself)
Km [7]: 800 µM
Km [8]: 200 µM

From patent US4623625A, “Enzyme extraction and purification processes” (priority 1983, dated 1986)
